Laboratory results: PMC4514735, “The FKBP52 Cochaperone Acts in Synergy with β-Catenin to Potentiate Androgen Receptor Signaling” (PLoS ONE, 2015)

Molecular target: T1, Gal4 DNA binding domain (DBD)-AR LBD chimeric protein (UniProt P10275 669-920)
T1 construct: also called Gal4-AR LBD; Gal4-DBD fused to the AR LBD; source: in cells (two-hybrid) and in lysate (co-IP)
T1 sequence (looked up): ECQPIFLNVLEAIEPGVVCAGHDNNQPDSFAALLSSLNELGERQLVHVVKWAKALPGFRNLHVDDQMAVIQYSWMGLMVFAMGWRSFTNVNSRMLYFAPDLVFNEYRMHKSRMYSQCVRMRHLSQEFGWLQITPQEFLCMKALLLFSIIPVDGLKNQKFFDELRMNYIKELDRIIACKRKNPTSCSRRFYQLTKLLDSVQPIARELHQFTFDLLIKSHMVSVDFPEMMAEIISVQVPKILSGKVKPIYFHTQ
Assay: two-hybrid; mammalian two-hybrid in 293T cells, Gal4-tk-luc reporter, 10 nM DHT, with FKBP52 overexpressed
Conditions: partners not purified

B1: VP16-AD fused to the full-length β-catenin (natural protein, UniProt P35222 1-781, looked up)
chain: MATQADLMELDMAMEPDRKAAVSHWQQQSYLDSGIHSGATTTAPSLSGKGNPEEEDVDTSQVLYEWEQGFSQSFTQEQVADIDGQYAMTRAQRVRAAMFPETLDEGMQIPSTQFDAAHPTNVQRLAEPSQMLKHAVVNLINYQDDAELATRAIPELTKLLNDEDQVVVNKAAVMVHQLSKKEASRHAIMRSPQMVSAIVRTMQNTNDVETARCTAGTLHNLSHHREGLLAIFKSGGIPALVKMLGSPVDSVLFYAITTLHNLLLHQEGAKMAVRLAGGLQKMVALLNKTNVKFLAITTDCLQILAYGNQESKLIILASGGPQALVNIMRTYTYEKLLWTTSRVLKVLSVCSSNKPAIVEAGGMQALGLHLTDPSQRLVQNCLWTLRNLSDAATKQEGMEGLLGTLVQLLGSDDINVVTCAAGILSNLTCNNYKNKMMVCQVGGIEALVRTVLRAGDREDITEPAICALRHLTSRHQEAEMAQNAVRLHYGLPVVVKLLHPPSHWPLIKATVGLIRNLALCPANHAPLREQGAIPRLVQLLVRAHQDTQRRTSMGGTQQQFVEGVRMEEIVEGCTGALHILARDVHNRIVIRGLNTIPLFVQLLYSPIENIQRVAAGVLCELAQDKEAAEAIEAEGATAPLTELLHSRNEGVATYAAAVLFRMSEDKPQDYKKRLSVELTSSLFRTEPMAWNETADLGLDIGAQGEPLGYRQDDPSYRSFHSGGYGQDALGMDPMMEHEMGGHHPGADYPVDGLPDLGHAQDLMDGLPPGDSNQLAWFDTDL
notes: β-catenin, full length; NheI-XbaI fragment of pCI-neo-β-catenin inserted into the pACT vector (Promega); also called Vp16-β-catenin; VP16-β-catenin
  fold enhancement of the two-hybrid signal by overexpressed FKBP52: 4.5 fold
